The record followed here is the nanobody polyreactivity screen of Harvey et al. (2022).

The nature of this series: yeast display, Sf9 membrane polyspecificity reagent, FACS + sequencing; frameworks hold sequencing errors. Summed up:
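Galactose-induced (36–48 hours) yeast carrying a synthetic nanobody display library were exposed to 10% biotinylated, detergent-solubilized Sf9 membrane reagent at 4 °C for 1 hour. FACS followed streptavidin microbead enrichment, using low and high (top ~1%) gates for expression (anti-HA) and reagent binding (streptavidin). Colony PCR, MiSeq 2 × 250 sequencing and CDR-length filtering followed. Labels for polyreactivity reflect the gate of origin.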
For “QVQLVESGGGLVQAGGSLRLSCAASGRTFDRYTMGWYRRAPGKERELVATIRSTGSTYYADSVKGRFTISRDNAKNTVYLQMNSLKTEDTAVYYCNRKYRSSLPYGDGYWGQGTQVTVSS”, the “polyreactivity (PSR sort gate)” value was “low polyreactivity”. The result for “QVQLVESGGGLVQAGGSLRLSCAASGRTFDSNAMGWYRQAPGKERELVAAISWSGGSTYYADSVKGRFTISRDNAKNTVYLQMNSLKPEDTAVYYCNRLGRHAPATRYGYWGQGTQVTVSS” reads “high polyreactivity”; that for “QVQLVESGGGLVQAGGSLRLSCAASGRTFDVNAMGWYRQAPGKERELVAAITWDGGSTYYADSVKGRFTISRDNAKNTVYLQMNSLKPEDTAVYYCAADFIQGAWWYVTYRYTYEYWGQGTQVTVSS”, “low polyreactivity”; that for “QVQLVESGGGLVQAGGSLRLSCAASGRTFDYNAMGWYRQAPGKERELVADISNGGTTSYADSVKGRFTISRDNAKNTVYLQMNSLKPEDTAVYYCATLYDWSSFANSYWYFGWEEDYWGQGTQVTVSS”, “low polyreactivity”. The result for “QVQLVESGGGLVQAGGSLRLSCAASGRTFDYNAMGWYRQAPGKERELVARISNGDSTYADSVKGRFTISRDNAKNTVYLQMNSLKPEDTAVYYCAARQEPGWYPDVWWEYDYWGEGTQVTVSS” reads “low polyreactivity”. The result for “QVQLVESGGGLVQAGGSLRLSCAASGRTFDYNTMGWYRPAPGKDRELVAAISASGGSTYYADSVKGRFTISRDNAKNTVYLQMNSLKPEDTAVYYCNTYAGVEYYHWGQGTQVTVSS” reads “low polyreactivity”; that for “QVQLVESGGGLVQAGGSLRLSCAASGRTFDYYAMGWYRQAPGKERELVAAISSTGTSTYYGDSVKGRFTISRDNAKNTVYLQMNRLKPVDTAVYYCSAVSWYEYDYWGQGTQVSVSS”, “high polyreactivity”; that for “QVQLVESGGGLVQAGGSLRLSCAASGRTFDYYVMGWYRQAPGKERELVAAISTSGGRTYYADSVKGRFTISRDNAKNTVYLQMNSLKPEDTAVYYCAAYWGGWSFRYLYDYWGQGTQVTVSS”, “high polyreactivity”. Consider “QVQLVESGGGLVQAGGSLRLSCAASGRTFEANAMGWYRQAPGKERELVASISRSGGNTYYADSVKGRFTISRDNAKNTGYLQMNSLKPEDTAVYYCAARFRVGQRRFNYWGQGTQVTVSS”, for which the “polyreactivity (PSR sort gate)” value is listed as “high polyreactivity”.

On to “QVQLVESGGGLVQAGGSLRLSCAASGRTFEFYTMGWYRQAPGKERELVAAINWSGSRTYYADSVKGRFTISRDNAKNTVYLQMNSLKPEDTAVYYCNAGEKRGLISIQGYDYWGQGTQVTVSS”, for which the “polyreactivity (PSR sort gate)” value is reported as “high polyreactivity”. To “QVQLVESGGGLVQAGGSLRLSCAASGRTFEGNAMGWYRQAPGKERELDAAITSGGRTNYADSVKGRFTISRDNAKNTVYLQMNSLKPEDTAVYYCAVETRDRSTSFPGQAYDYWGQGSQVTVSS” belongs “low polyreactivity”; to “QVQLVESGGGLVQAGGSLRLSCAASGRTFEGNAMGWYRQAPGKERELVAAINSSGGSTYYADSVKGRFTISRDNAKNTVYLQMNSLKPEDTAVYYCNAVAGPQGVKLYDYWGQGTQVTVSS”, “low polyreactivity”; to “QVQLVESGGGLVQAGGSLRLSCAASGRTFEGNAMGWYRQAPGKERELVAAITSGGRTNYADSVKGRFTISRDNAKNTVYLQMNSLKPEDTAVYYCAAGQVSVGTIAKYDYWGQGTQVTVSS”, “low polyreactivity”. The result for “QVQLVESGGGLVQAGGSLRLSCAASGRTFELNAMGWYRQAPGKERELVAAISWSGGSTYYADSVKGRFTISRDNAKNTVYLQMNSLKPEDTAVYYCAAQYQQGPFVKYYYWGQGTQVTVSS” reads “high polyreactivity”. To “QVQLVESGGGLVQAGGSLRLSCAASGRTFEQYAMGWYRQAPGKERELVAAISGSGGSTFYADSVKGRFTISRDNAKNTVYLQMNSLKPEDTAVYYCAVDAYPPFFYFTSVWFSYDYWGQGTQVTVSS” belongs “low polyreactivity”.

With “QVQLVESGGGLVQAGGSLRLSCAASGRTFESYAMGWYRPAPGKERELVAAITWSGGDTYYADSVKGRFTISRDNAKNTVYLQMNSLKPEDTAVYYCAKEQGLYSVSPYDYWGQGTQVTVSS”, the “polyreactivity (PSR sort gate)” value is recorded as “low polyreactivity”.

As for “QVQLVESGGGLVQAGGSLRLSCAASGRTFESYAMGWYRQAAGKERELVAAIRSRGGSTNYADSVKGRFTISRDNAKNTVYLQMNSLKPEDTAVYYCNKDGTWVARAVTYADFDYWGQGTQVTVSS”, the “polyreactivity (PSR sort gate)” value was “low polyreactivity”. To “QVQLVESGGGLVQAGGSLRLSCAASGRTFETNAMGWYRQAPGKERELVASINWSGGSTYYADSVKGRFTISRDNAKNTVYLQMNILKPEDTAVYYCAADHSYWDWWSYYYWGQGTQVTVSS” belongs “low polyreactivity”; to “QVQLVESGGGLVQAGGSLRLSCAASGRTFEYYAMGWYRQAPGKERELVAAIDSGGSTNYADSVKGRFTISRDNAKNTVYLQMNSLKPEDTAVYYCATEVDQNYNYDYWGQCTQVTVSS”, “low polyreactivity”.

For “QVQLVESGGGLVQAGGSLRLSCAASGRTFEYYAMGWYRQAPGKERELVAAIDSGGSTNYADSVKGRFTISRDNAKNTVYLQMNSLKPEDTAVYYCATEVDQNYNYDYWGQGTQVTVSS”, the “polyreactivity (PSR sort gate)” value is given as “low polyreactivity”. The result for “QVQLVESGGGLVQAGGSLRLSCAASGRTFFCYAMGWYRQAPGKERELVAAITYRGGGTYYADSVKGRFTISRDNAKNTVNLQMNSLKPEDTAVYYCAAEYWVGVYLYDYWGQGTQVTVSS” reads “high polyreactivity”; that for “QVQLVESGGGLVQAGGSLRLSCAASGRTFFDYAMGWYRQAPGKERELVAAITSSGSSTYYADSVKGRFTISRDNAKNTVYLQMNSLKPEDTAVYYCAAGASANKKITSYDYWGQGTQVTVSS”, “low polyreactivity”; that for “QVQLVESGGGLVQAGGSLRLSCAASGRTFFFNAMGWYRQAPGIERELVATISWNGGDTYYADSVKGRFTISRDNAKNTVYLQMNSLKPEDTAVYDCNARVLWGQGTQVTVSS”, “high polyreactivity”. The result for “QVQLVESGGGLVQAGGSLRLSCAASGRTFFGYAMGWYRQAPGKERELVAAISRGGGRTYYADSVKGRFTISRDNAKNTVYLQMNSLKPEDTAVYYCNAVTFSFYLYDWGQGTQVTVSS” reads “high polyreactivity”; that for “QVQLVESGGGLVQAGGSLRLSCAASGRTFFGYAMGWYRQAPGKERELVAAISSRGDSTYYADSVKGRFTISRDNAKNTVYLQMNSLKPEDTAVYYCNAPVYTAAGYRYGTVRYGYWGQGTQVTVSS”, “low polyreactivity”; that for “QVQLVESGGGLVQAGGSLRLSCAASGRTFFGYAMGWYRQATGKERELVAAINWGGASTYYADSVKGRFTISRDNAKNTVYLQMNSLKPEDTAVYYCAADSVPSRPTYGRYDYWGQGTQVTVSS”, “low polyreactivity”. To “QVQLVESGGGLVQAGGSLRLSCAASGRTFFHYAMGWYRQAPGKERELVAGISSGGRTKYADSVKGRFTISRDNAKNTVYLQMNSLKPEDTAVYYCAASYIVWLTRGAPRKRFDYWGQGTQVTVSS” belongs “high polyreactivity”. On to “QVQLVESGGGLVQAGGSLRLSCAASGRTFFINTMGWYRQAPGKEREFVAAITWSAGRTYYADSVKGRFTISRDNAKNTVYLQMNSLKPEDTAVYYCAAALHGHTFPFYYWGQGTLVTVSS”, for which the “polyreactivity (PSR sort gate)” value is on record as “low polyreactivity”. The result for “QVQLVESGGGLVQAGGSLRLSCAASGRTFFKYVMGWYRQAPGKERELVAAISSGGSTNYADSVKGRFTISRDNAKNTVYLQMNSLKPEDTAVYYCATYDPARSTQGYDYWGQGTQVTVSS” reads “high polyreactivity”; that for “QVQLVESGGGLVQAGGSLRLSCAASGRTFFKYVMGWYRQAPGKERELVAAISYRSGSTYYADSVKGRFTISRDNAKNTVYLQMNSLKPEDTAVYYCAIEPPPVKGDYWGQGTQVTVSS”, “low polyreactivity”; that for “QVQLVESGGGLVQAGGSLRLSCAASGRTFFNYGMGWYRQAPGKEREFVARISFSGGSTYYADSVKGRFTISRDNAKNTVYLQMNSVKPEDTAVYYCNARVFPFAYRYGYWGQGTQVTVSS”, “high polyreactivity”.

For the sequence “QVQLVESGGGLVQAGGSLRLSCAASGRTFFRNVMGWYRQAPGKERELVAGITWTGGTTYYADSVKGRFTISRDNAKNTVYLQMNSLKPEDTAVYYCATRNYAVVPSVRREGYYWGQGTQVTVSS”, the “polyreactivity (PSR sort gate)” value is recorded as “low polyreactivity”. The result for “QVQLVESGGGLVQAGGSLRLSCAASGRTFFRYVMGWYRQAPGKERELVAAISRSGGSTYYADSVKGRFTISRDNAKITVYLQMNSLKPEDTAVYYCNTVARSTVVPTEFDYWGQGTQVTVSS” reads “high polyreactivity”. For the sequence “QVQLVESGGGLVQAGGSLRLSCAASGRTFFSYAMGWYRQAPGKERELVAAITYSGGRTYYADSVKGRFTISRDNAKNTVYLQMNSLKPVDTAVYYCAATHYREKMDYWGQGTQVTVSS”, the “polyreactivity (PSR sort gate)” value is listed as “low polyreactivity”. The result for “QVQLVESGGGLVQAGGSLRLSCAASGRTFFTYAMGWYRQAPGKERELVAAITGSGGSTSYADSVKGRFTISRDNAKNTVYLQMNSLKPEDTAVYYCAADWQELEYDYWGQGTQVTVSS” reads “low polyreactivity”; that for “QVQLVESGGGLVQAGGSLRLSCAASGRTFFVYTMGWYRQAPGKERELVAAITSDTSTTYADSVKGRFTISRDNAKNTVYLQMISLKPEDTAVYYCAAEGYVGYYDYDYWGQGTQVTVSS”, “low polyreactivity”; that for “QVQLVESGGGLVQAGGSLRLSCAASGRTFFWNAMGWYRQAPGTERELVAAITWSGGSTYYADSVKGRFTLSRDNAKNTVYLQMNSLKPEDTAVYYCAAVVSEYVWRYEYWGQGTQVTVSS”, “low polyreactivity”. The result for “QVQLVESGGGLVQAGGSLRLSCAASGRTFFWYAMGWYRQAPGKERDLVAAIRGAGRTNYADSVKGRFTISRYNAKNTVYLQMNSLKPEDTAVYYCAAQHYPWRRYDYWGQGTQVTVSS” reads “high polyreactivity”. To “QVQLVESGGGLVQAGGSLRLSCAASGRTFFYNAMGWYRQAPGKERELVAAISSGGGSTYYADSVKGRFTISRDNAKNTVYLQMNSLKPEDTAVYYCAAASYRQPGYGYWGQGTQVTVSS” belongs “high polyreactivity”; to “QVQLVESGGGLVQAGGSLRLSCAASGRTFGAYAMGWYRQAPGKERELVASISRSGGTTYYADSVKGRFTISRDNAKNTVYLQMNSLKPEDTAVYYCAAQYVRYGHYYWGQGTQVTVSS”, “high polyreactivity”; to “QVQLVESGGGLVQAGGSLRLSCAASGRTFGAYTMGGYRQAPGKDRELVAAISSGTRTNYADSVKGRFTISRDNAKNTVYLQMNSLIPEDTAVYYCAATVLGHNRVYYWGQGTQVTVSS”, “low polyreactivity”.
